In patent publication US20220242958A1 (published 2022):

Experiments:
[1] = biological target: T1, human CD4, cell-expressed (human, UniProt P01730 26-458); test: cell-based or functional assay
[2] = biological target: T2, human CXCR4 (on cells, membrane extracts or viral lipoparticles) (human, UniProt P61073 1-352); test: ELISA, hCXCR4 VLPs
T2 construct: whole, on cells; see assay; also called hCXCR4 VLPs; CXCR4-VLP

[3] = biological target: CXCR4 and CD4 co-expressed on cells (human, UniProt P61073 1-352; P01730 26-458); test: cell-based or functional assay
IL12Rβ2-Fc = biological target: T3, IL12Rβ2-Fc (human, UniProt Q99665 24-622); test: SPR and competition ELISA, against IL12Rb2#1
T3 construct: extracellular domain; bought; also called hIL-12Rβ2-Fc; Fc-fusion of human IL12Rβ2 extracellular domain (R&D Systems #1959-B2)
T3 sequence (looked up): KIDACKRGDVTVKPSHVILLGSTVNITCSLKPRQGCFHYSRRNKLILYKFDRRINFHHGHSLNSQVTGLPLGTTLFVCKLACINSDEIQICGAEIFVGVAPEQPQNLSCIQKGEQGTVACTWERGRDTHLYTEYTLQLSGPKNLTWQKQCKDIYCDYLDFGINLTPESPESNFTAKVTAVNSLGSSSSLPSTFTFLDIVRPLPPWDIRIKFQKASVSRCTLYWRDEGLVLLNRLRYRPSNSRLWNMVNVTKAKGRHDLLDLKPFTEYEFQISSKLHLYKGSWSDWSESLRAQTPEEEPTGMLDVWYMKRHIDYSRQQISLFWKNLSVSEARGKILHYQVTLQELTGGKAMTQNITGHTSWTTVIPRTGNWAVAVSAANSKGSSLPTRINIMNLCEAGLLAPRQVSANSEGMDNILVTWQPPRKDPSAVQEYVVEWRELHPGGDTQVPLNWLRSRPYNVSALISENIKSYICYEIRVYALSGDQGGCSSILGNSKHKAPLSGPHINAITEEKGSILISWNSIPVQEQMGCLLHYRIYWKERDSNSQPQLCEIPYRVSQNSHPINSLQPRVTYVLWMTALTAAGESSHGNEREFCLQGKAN

[4] = biological target: T4, IL23R, cell-expressed on human T cells (human, UniProt Q5VWK5 24-629); test: cell-based or functional assay
T4 sequence (looked up): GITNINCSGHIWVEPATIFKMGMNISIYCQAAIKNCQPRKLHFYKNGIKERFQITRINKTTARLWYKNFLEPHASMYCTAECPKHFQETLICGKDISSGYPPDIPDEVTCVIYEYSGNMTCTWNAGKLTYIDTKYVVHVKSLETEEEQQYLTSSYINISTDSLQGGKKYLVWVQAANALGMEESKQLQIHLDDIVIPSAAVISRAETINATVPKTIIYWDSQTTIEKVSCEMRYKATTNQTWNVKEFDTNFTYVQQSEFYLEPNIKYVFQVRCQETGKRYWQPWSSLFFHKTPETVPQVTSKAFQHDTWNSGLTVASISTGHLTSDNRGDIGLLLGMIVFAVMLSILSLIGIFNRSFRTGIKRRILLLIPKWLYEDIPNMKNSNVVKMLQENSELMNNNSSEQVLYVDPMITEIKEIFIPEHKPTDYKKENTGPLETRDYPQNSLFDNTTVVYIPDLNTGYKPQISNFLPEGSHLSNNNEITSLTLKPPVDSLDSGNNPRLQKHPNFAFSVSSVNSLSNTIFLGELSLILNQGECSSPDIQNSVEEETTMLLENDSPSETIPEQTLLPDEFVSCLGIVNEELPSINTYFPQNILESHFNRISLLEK

[5] = biological target: T1, human CD4, cell-expressed; test: FACS, MOLM-13 cells

CXCR4 and CD4 co-expressed on cells, sequence (P61073 whole entry, chain 1 of 2, other chains not shown): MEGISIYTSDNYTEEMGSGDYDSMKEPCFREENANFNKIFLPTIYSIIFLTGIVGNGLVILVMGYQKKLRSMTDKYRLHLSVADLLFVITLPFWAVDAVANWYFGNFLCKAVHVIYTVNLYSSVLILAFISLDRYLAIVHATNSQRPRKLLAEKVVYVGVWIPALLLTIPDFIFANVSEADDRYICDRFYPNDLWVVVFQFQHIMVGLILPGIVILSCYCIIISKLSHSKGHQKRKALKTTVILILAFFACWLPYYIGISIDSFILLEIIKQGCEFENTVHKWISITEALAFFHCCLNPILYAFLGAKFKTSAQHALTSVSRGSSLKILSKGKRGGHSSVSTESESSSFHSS
T2 sequence (P61073 whole entry): as the sequence (P61073 whole entry, chain 1 of 2, other chains not shown) above

B1: 03F11 (CD4#8, Table 10) (VHH)
VHH: EVQLVESGGGSVQPGGSLTLSCGTSGRTFNVMGWFRQAPGKEREFVAAVRWSSTGIYYTQYADSVKSRFTISRDNAKNTVYLEMNSLKPEDTAVYYCAADTYNSNPARWDGYDFRGQGTQVTVSS
For B1, which “IC50, HIV-1 BaL(R5) in PBMC” value [1] is on record?
The value was 610 nM.

B2: 281F12-25GS-03F11 (bispecific antibody)
chain: EVQLVESGGGLVQAGDSLRLSCAASGRAFSRYAMGWFRQAPGKEREFVAAIGWGPSKTNYADSVKGRFTISRDNAKNTVYLQMNTLKPEDTAVYSCAAKFVNTDSTWSRSEMYTYWGQGTQVTVSSGGGGSGGGGSGGGGSGGGGSGGGGSEVQLVESGGGSVQPGGSLTLSCGTSGRTFNVMGWFRQAPGKEREFVAAVRWSSTGIYYTQYADSVKSRFTISRDNAKNTVYLEMNSLKPEDTAVYYCAADTYNSNPARWDGYDFRGQGTQVTVSS
notes: also called CXCR4#2-25GS-CD4#8
Does B2 bind [2]?
Result: binds

What about the “IC50, HIV-1 NL 4.3(X4) in MT-4” value [3] of the same binder?
Its value is 0.21 nM.

And the “IC50, HIV-1 NL 4.3(X4) in PBMC” value [3]?
Its value is 0.12 nM.

What about the “IC50, HIV-1 NL 4.3 (X4) in U87” value [3] of the same binder?
The value was 2.67 nM.

B3: IL12Rb2#2: 135A07 (VHH)
VHH: EVQLVESGGRLVQAGDSLRLSCAASGRTFTSYRMGWFRQAPGKEREFVSALRWSSGNIDYTYYADSVKGRFSISGDYAKNTVYLQMNSLKAEDTAVYYCAASTRWGVMESDTEYTSWGQGTLVTVSS
notes: also called LG135A07; IL12Rβ2#2
For B3, which “fold difference in KD and ligand competition between the family members” value (IL12Rβ2-Fc) is on record?
The value was 3.5 fold.

B4: IL23R#19-CD4#8 (bispecific antibody)
chain: EVQLVESGGGLVQPGGSLTLSCVASGRTFSTDVMGWFRQAPGKEREFVAAHRTSGISTVYAASVKGRFTISRDNAKNTVYLGMKSLKPEDTAVYVCAAGSDASGGYDYWGQGTLVTVSSGGGGSGGGGSGGGGSGGGGSGGGGSGGGGSGGGGSEVQLVESGGGSVQPGGSLTLSCGTSGRTFNVMGWFRQAPGKEREFVAAVRWSSTGIYYTQYADSVKSRFTISRDNAKNTVYLEMNSLKPEDTAVYYCAADTYNSNPARWDGYDFRGQGTLVTVSS
notes: also called BI#42; T023200042
Which “IC50, IL-17 release PBMC D840” value [4] does the source give for B4 here?
Its value is 58.9 nM.

What about the “fold ctrl, IL-17 release PBMC D840” value [4] of the same binder?
Its value is 1.7 fold.

Does B4 bind [5]?
Result: binds
